Measurements reported in patent US20040265797A1.

Molecular target: Vitronectin purified from human plasma (human) (UniProt P04004)
Experiment: ELISA: biotinylated suPAR without uPA1-48 on vitronectin-coated wells

Chain of Vitronectin purified from human plasma (human) (P04004 20-478): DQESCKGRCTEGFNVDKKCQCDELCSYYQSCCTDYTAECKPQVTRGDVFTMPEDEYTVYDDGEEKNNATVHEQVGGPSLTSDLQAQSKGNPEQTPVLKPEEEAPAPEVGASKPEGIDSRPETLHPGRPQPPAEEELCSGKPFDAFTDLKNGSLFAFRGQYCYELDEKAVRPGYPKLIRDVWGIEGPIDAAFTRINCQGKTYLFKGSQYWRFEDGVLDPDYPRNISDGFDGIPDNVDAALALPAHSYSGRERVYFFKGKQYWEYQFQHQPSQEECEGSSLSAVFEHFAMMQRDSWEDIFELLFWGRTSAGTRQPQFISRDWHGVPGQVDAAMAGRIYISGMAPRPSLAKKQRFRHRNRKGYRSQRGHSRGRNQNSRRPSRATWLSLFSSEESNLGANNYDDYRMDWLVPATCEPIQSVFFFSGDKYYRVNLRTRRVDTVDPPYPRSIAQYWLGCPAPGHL

- mean absorbance at 450 nm: 0.03 OD450
Substance: Soluble recombinant human urokinase receptor (suPAR) (from UniProt Q03405 23-299)
